Two substances from patent US20190315799 can be followed below.

For this data set, the system named is SpyTag-CsgA.

As to PTDH-SpyCatcher, the “PTDH activity (OD 340 nm, absorbance of formed NADH)” value is listed as “the thin cotton cloth exhibited almost exclusive specific-enzyme binding”.

As for amylase-SpyCatcher, the amylase activity entry was “amylase activity was observed throughout the experiment”.
